The results in this text go back to patent US20210252159A1, “CONJUGATES OF CARTILAGE-HOMING PEPTIDES” (priority 2018, published 2021).

Positions of bridges follow the written chain, without caps; N, C: chain ends. Residues, ends and D or L forms follow the SMILES beside them. *: point of attachment. X3 = C[C@@H]1C[C@H]2[C@@H]3CCC4=CC(=O)C=C[C@]4(C)[C@@]3(F)[C@@H](O)C[C@]2(C)[C@@]1(O)C(=O)COC(=O)CCCC(=O)*

Series [1] is described as follows: Hydrolysis assay of peptide-drug conjugates in human plasma (free Dex by LC/MS). It is filed as in vitro ADME. The settings on record: 37° C., release of free Dex, time points to 32 hr, read-out: Half-life (hours) as measured in the hydrolysis experiments (converted). The method, then: In order to determine hydrolysis rates, conjugates can be diluted in PBS, rat plasma, or human plasma and incubated at 37 degrees. Samples can be taken at designated time-points (e.g., 1, 2, 3, 5, 10, 15, 20, 25, 30, 45, 60, or 90 minutes and/or hours after administration). Internal standards such as triamcinolone acetonide (TAA) can be added as an internal standard, and then active agent/TAA can be extracted using acetonitrile, for example. The samples can be dried down, reconstituted, and analyzed by LC/MS. Data can be normalized using Dex AUC/TAA AUC. Percent hydrolysis can be calculated using the average ratio for active agent AUC/TAA AUC at a time point of maximal drug release. A general method can include using a lyophilized, purified peptide-drug conjugates reconstituted in DMSO following production to generate stock solution at 20 mg/mL. Each conjugate stock can be brought to 0.25 mg/mL in each hydrolysis condition (1×DPBS, human plasma and rat plasma) in triplicate and rocked at 37° C. To quantitate free active agent, 100 μl of the hydrolyzed conjugate solution can be transferred into 1 mL acetonitrile at 4° C. at which time all plasma proteins and intact conjugates can precipitate. This can be performed repeatedly to generate a series of time points (0 hr, 0.5 hr, 1 hr, 2 hr, 4 hr, 6 hr, 8 hr, 24 hr, 32 hr). The acetonitrile solution can be spun at 17,000 g for 5 minutes, and the supernatant removed and added to a 96 well block. The pellet can then be resuspended in 500 μl acetonitrile and re-pelleted as before. The supernatant can be removed and added to the same well in the block. Samples can be prepared for analysis by drying under a nitrogen stream followed by reconstitution in 110 μl 45:55 ACN:Citrate 10 mM pH 5.5. […] Quantification of free active agent (or drug) can be achieved through integration of active agent peaks of the TIC. […]
To quantitate free dexamethasone (Dex), 100 μl of the hydrolyzed conjugate solution was transferred into 1 mL acetonitrile at 4° C. at which time all plasma proteins and intact conjugates precipitated. […]

Series [2] is described as follows: Hydrolysis assay of peptide-drug conjugates in rat plasma (free drug by LC/MS). Format: in vitro ADME. Particulars: 37° C. The method, then: Peptide-drug conjugate peptide(SEQ ID NO: 105)-DMA-dCIC was incubated in rat plasma at 37° C. Samples were removed at regular intervals, processed by solvent extraction, and analyzed by LC/MS to quantitate free dCIC. 11 time-points were measured between 5 min and 56 hours with 3 replicates per time point. The assay was repeated two times.
(§1) In order to determine hydrolysis rates, conjugates can be diluted in PBS, rat plasma, or human plasma and incubated at 37 degrees. Samples can be taken at designated time-points (e.g., 1, 2, 3, 5, 10, 15, 20, 25, 30, 45, 60, or 90 minutes and/or hours after administration). Internal standards such as triamcinolone acetonide (TAA) can be added as an internal standard, and then active agent/TAA can be extracted using acetonitrile, for example. The samples can be dried down, reconstituted, and analyzed by LC/MS. Data can be normalized using Dex AUC/TAA AUC. Percent hydrolysis can be calculated using the average ratio for active agent AUC/TAA AUC at a time point of maximal drug release. A general method can include using a lyophilized, purified peptide-drug conjugates reconstituted in DMSO following production to generate stock solution at 20 mg/mL. Each conjugate stock can be brought to 0.25 mg/mL in each hydrolysis condition (1×DPBS, human plasma and rat plasma) in triplicate and rocked at 37° C. To quantitate free active agent, 100 μl of the hydrolyzed conjugate solution can be transferred into 1 mL acetonitrile at 4° C. at which time all plasma proteins and intact conjugates can precipitate. This can be performed repeatedly to generate a series of time points (0 hr, 0.5 hr, 1 hr, 2 hr, 4 hr, 6 hr, 8 hr, 24 hr, 32 hr). The acetonitrile solution can be spun at 17,000 g for 5 minutes, and the supernatant removed and added to a 96 well block. The pellet can then be resuspended in 500 μl acetonitrile and re-pelleted as before. The supernatant can be removed and added to the same well in the block. Samples can be prepared for analysis by drying under a nitrogen stream followed by reconstitution in 110 μl 45:55 ACN:Citrate 10 mM pH 5.5. To ensure optimal recovery the block can be shaken via plate shaker at 7,000 rpm for 5 minutes during the reconstitution step. Prior to LC/MS the samples can be transferred to a 96 well plate and centrifuged at 6,500 g for 15 minutes. Analysis can be performed on an Agilent 1260 Infinity series HPLC with inline 6120 single quad MS using acetonitrile, water (+0.1% TFA) gradient (shown below) on an InfinityLab Poroshell SB-C18 column. Quantification of free active agent (or drug) can be achieved through integration of active agent peaks of the TIC.
(§2) Lyophilized, purified peptide-drug conjugates were reconstituted in DMSO following production to generate stock solution at 20 mg/mL. Each conjugate stock was brought to 0.25 mg/mL in each hydrolysis condition (1×DPBS, human plasma and rat plasma) in triplicate and rocked at 37° C.
(§3) To quantitate free dexamethasone (Dex), 100 μl of the hydrolyzed conjugate solution was transferred into 1 mL acetonitrile at 4° C. at which time all plasma proteins and intact conjugates precipitated. This was performed repeatedly to generate a series of time points (0 hr, 0.5 hr, 1 hr, 2 hr, 4 hr, 6 hr, 8 hr, 24 hr, 32 hr). The corticosteroid triamcinolone acetonide (25 μl, 0.1 mg/mL in 45:55 ACN:Citrate 10 mM pH 5.5) was supplemented into the acetonitrile solution as an internal standard. The acetonitrile solution was spun at 17,000 g for 5 minutes, and the supernatant removed and added to a 96 well block. The pellet was resuspended in 500 μl acetonitrile and re-pelleted as before. The supernatant was removed and added to the same well in the block.
Samples were prepared for analysis by drying under a nitrogen stream followed by reconstitution in 110 μl 45:55 ACN:Citrate 10 mM pH 5.5. To ensure optimal recovery the block was shaken via plate shaker at 7,000 rpm for 5 minutes during the reconstitution step. […]

Series [3] can be described thus: Hydrolysis assay of peptide-drug conjugates in PBS (free Dex by LC/MS). Particulars: 37° C. Format: physicochemical. Here is the method: as §1, §2, §3
Samples were prepared for analysis by drying under a nitrogen stream followed by reconstitution in 110 μl 45:55 ACN:Citrate 10 mM pH 5.5. To ensure optimal recovery the block was shaken via plate shaker at 7,000 rpm for 5 minutes during the reconstitution step. Prior to LC/MS the samples were transferred to a 96 well plate and centrifuged at 6,500 g for 15 minutes. Analysis was performed on an Agilent 1260 Infinity series HPLC with inline 6120 single quad MS using a gradient of 0.1% TFA in acetonitrile (solvent B), and 0.1% TFA (aq) (solvent A) gradient (shown below) on an InfinityLab Poroshell SB-C18 column. […]

The next series has as its system CIA rats. Here is the method: Arthritis was induced in 9-week-old female Lewis rats (Envigo or Charles River Laboratories) by intradermal injection while anesthetized of 400 ug bovine type II collagen (Chondrex Inc, Redmond Wash.) in 2 adjacent 200 ul (1 mg/ml) doses on day 0. Collagen is prepared for injection by dissolving at 2 mg/ml in 0.01N glacial acetic acid in sterile water and rocking at 4° C. overnight then emulsifying in Freund's incomplete adjuvant (IFA, Sigma Aldrich). To emulsify, equal volumes of collagen solution and IFA are drawn up into separate syringes, which are joined by a 3-way stopcock. While on ice, the collagen and IFA are mixed by pressing between the two syringes rapidly for 10 minutes. Quality of the emulsification is tested after 10 minutes of mixing by dropping a small amount of mixture in water. A properly emulsified solution will remain as a discrete droplet and not disperse in the water. On day 7, rats are challenged with a second intradermal injection of 100 ug of collagen in 100 ul, 1 mg/ml, collagen in IFA solution prepared fresh. Body weight and ankle diameter measurements are recorded daily from day 7 through the end of the study. Ankle diameter was measure by a single researcher using a Fowler Digitrix 2 micrometer. Three measurements of each ankle were taken of the lateral dimension at the tarsus of lightly anesthetized rats. The reported ankle diameter measurement is the mean of the three measurements.
Arthritis was induced as described in four cohorts of 9-week-old female Lewis rats. Rats were randomly placed in treatment groups, balancing compound and dose groups across cohorts. […] Rats were dosed by tail vein injection on days 11 and 12 and euthanized on day 13 by CO2 asphyxiation. Immediately after cessation of respiratory movement, blood was collected by cardiac puncture, synovial fluid was collected from both knees, one hind limb was fixed in formalin and the alternate ankle was frozen on dry ice. Thymus, spleen, liver, and kidney weights were recorded.
CIA Response study design.
The aim of the study was to test the 4 conjugates with various linkers at two different doses in vivo in CIA rats to assess the following: ability to deliver sufficient dexamethasone to the joint to show functionality and potential therapeutic effect in the disease model.
CIA was induced in female Lewis rats (as described above, see EXAMPLE 21). Body weight and ankle joint diameters were measured on day 0 and then daily from day 7 until euthanasia. […] At euthanasia, synovial fluid was collected from both knees, one hind limb was fixed in formalin and the alternate ankle was frozen on dry ice. Thymus, spleen, liver, and kidney weights were recorded. Blood samples were submitted for CBC/Chemistry analysis, and the remaining plasma was frozen.

Take `CC[C@H](C)[C@@H]1NC(=O)[C@@H]2CSSC[C@H](NC(=O)[C@H](CCCNC(=N)N)NC(=O)[C@@H](NC(=O)[C@H](CC(N)=O)NC(=O)[C@@H](NC(=O)[C@@H]3CCCN3C(=O)[C@@H](NC(=O)CNC(=O)[C@H](CO)NC(=O)CNC(=O)CCCC(=O)OCC(=O)[C@@]3(O)[C@H](C)C[C@H]4[C@@H]5CCC6=CC(=O)C=C[C@]6(C)[C@@]5(F)[C@@H](O)C[C@@]43C)C(C)C)[C@@H](C)CC)C(C)C)C(=O)N[C@@H](CCCNC(=N)N)C(=O)NCC(=O)N[C@@H](CO)C(=O)N[C@@H](CCCNC(=N)N)C(=O)N[C@@H](CC(=O)O)C(=O)N[C@H]3CSSC[C@H](NC(=O)[C@H](CCCNC(=N)N)NC(=O)[C@H](CO)NC(=O)[C@H](CC(N)=O)NC1=O)C(=O)N[C@@H](Cc1c[nH]cn1)C(=O)N[C@H](C(=O)N[C@H](C(=O)N1CCC[C@H]1C(=O)O)[C@@H](C)O)CSSC[C@H](NC(=O)[C@@H]1CCCN1C(=O)[C@H](CC(=O)O)NC(=O)[C@H](CC(C)C)NC3=O)C(=O)N[C@@H](CCCNC(=N)N)C(=O)N[C@@H](CCCNC(=N)N)C(=O)N[C@@H](C)C(=O)NCC(=O)N[C@@H](CCSC)C(=O)N[C@@H](CCCNC(=N)N)C(=O)N[C@@H](Cc1ccccc1)C(=O)NCC(=O)N[C@@H](CCCNC(=N)N)C(=O)N2` [Compound 23, Peptide(SEQ ID NO: 105)-glutaric acid-Dex] (X3-GSGVPINVRCRGSRDCLDPCRRAGMRFGRCINSRCHCTP-OH; disulfide 10-30, 16-35, 20-37 (inferred); C-terminus assumed): the half-life at 0.25 mg/mL in series [1] was 1.7 h; in series [2] (Rat Plasma, release of free Dex, time points to 32 hr, read-out: Half-life (hours) as measured in the hydrolysis experiments (converted)) it was 1.9 h; in series [2] (in rat plasma, free Dex, read-out: Hydrolysis half-life (converted)), 1.9 h; in series [3] (PBS, release of free Dex, time points to 32 hr, read-out: Half-life (hours) as measured in the hydrolysis experiments (converted)), 6 h. Further, the Hydrolysis half-life in series [3] (in PBS, free Dex) is given as 6 h. Also, in the series on CIA rats (0.2 mg/kg and 0.5 mg/kg Dex equivalents IV days 11 and 12), the “ankle swelling over time as compared to vehicle” value is “reduction in ankle swelling”. In addition, the spleen weight result in the series on CIA rats (0.2 mg/kg and 0.5 mg/kg dose) is given as “reduction”. Moreover, the thymus weight entry in the series with CIA rats (0.2 mg/kg and 0.5 mg/kg dose) is listed as “reduction”. Further, in the series on CIA rats (0.2 mg/kg and 0.5 mg/kg dose), the total body weight result is “reduction”. Also, in the series on CIA rats (0.2 mg/kg dose), the “change in median ankle diameter between day 11 and day 13 as compared to vehicle” value is listed as “statistically significant reduction in ankle diameter”. Besides, the “difference from Dex in change in ankle diameter” value in the series with CIA rats (0.2 mg/kg dose) is recorded as “no statistically significant difference”. In addition, in the series with CIA rats (0.2 mg/kg dose groups), the “reduction in thymus weight as compared to vehicle” value is “statistically significant”. In addition, the mortality and tolerability result with CIA rats (1 mg/kg Dex equivalents IV, some rats) is on record as “died overnight”.
